Laboratory results published in publication PMC314469, “Protein Interaction Networks by Proteome Peptide Scanning” (PLoS Biology, 2004).

T1: Abp1 SH3 (ABP1_YEAST), P15891
T1 chain: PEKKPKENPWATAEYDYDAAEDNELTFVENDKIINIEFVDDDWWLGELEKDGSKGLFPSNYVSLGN


Biological target: T1, Abp1 SH3 (ABP1_YEAST), P15891
Assay: SPOT array

Binder | normalised SPOT signal, Boehringer light units (BLU); mean over the file's lines of this peptide
ILDKTSPETAPHKP [YOR176W 118-131] | 86.1
ISMIPRYPVTSRP [YDL056W 329-341] | 2470
IRGFKSKPGTAKP [YDR409W 265-277] | 434
IDRIPPPTGRPDKP [YLR289W 221-234] | 118
IKEEERLQSQPPRP [YGR268C 17-30] | 137
IMSPVGNPEGPEKP [YKL060C 311-324] | 153
IFLNYEWPQWLRP [YOR336W 1160-1172] | 163
IRRYLRVPNELKP [YJL004C 4-16] | 105
ISLDSPIPENIKP [YNL102W 567-579] | 95.3
IQESMKHPKHFRP [YKL146W 503-515] | 822
IRPDGRLPHQFRP [YDL111C 21-33] | 1260
IIDSVKVPDSYKP [YDR058C 11-23] | 67.7
IIEKGPVPENLKP [YLR069C 260-272] | 100
ILTFSTKKSKPIRP [YMR259C 332-345] | 1350
IGRNIVKVVYPDKP [YJL025W 348-361] | 105
IKKSVSSPKVSKP [YLR453C 47-59] | 114
IITDTTRPSNNRP [YOR368W 277-289] | 126

Binder | normalised SPOT signal, Boehringer light units (BLU); mean over the file's lines of this peptide
IPEYILDPNAQKP [YAL058W 299-311] | 50
IPILIKMSRSPPRP [YDR243C 233-246] | 2420
IPGLGYLENNPGRP [YOL146W 66-79] | 155
ILKQDLIPSIGKP [YNR027W 300-312] | 73
INLAVNMPPGQRP [YEL055C 74-86] | 163
IPSGKVDPVTKKP [YJR024C 135-147] | 21
IESLTTIMRIPSKP [YBR250W 264-277] | 204
ILVSLLIHSLPRKP [YGL104C 354-367] | 176
IGNDRASPTNKKP [YGR097W 338-350] | 420
IPSENNIFFIPQKP [YPL147W 673-686] | 79.8
ILEEDLNPDAPPKP [YPL057C 39-52] | 76.3
IHTSPHQPSDVKP [YDR227W 60-72] | 121
ISSQIAQPYEDRP [YDR280W 60-72] | 43.3
ILVESSSPLSSKP [YGL248W 276-288] | 52.3
INQFGIVPLGPKP [YGR154C 339-351] | 133
IHLTDKGFKMPKKP [YOR243C 79-92] | 508

Next, values leading:

normalised SPOT signal, Boehringer light units (BLU); mean over the file's lines of this peptide | Binder
150 | IGLFGKDLSKPGRP [YBR243C 53-66]
38.6 | IKPDAVVPERVKP [YPR171W 226-238]
57.2 | IPPPQTLPNGQKP [YGL222C 52-64]
9.5 | INPLGITPLGPKP [YKR076W 353-365]
87.3 | IKPPKHIRNEPVKP [YHR037W 22-35]
2630 | IERQRLSMVTPSKP [YCL063W 140-153]
2180 | IPLLKEKPNALKP [YOR001W 149-161]
57.8 | IILENFIVEVPDKP [YKL005C 358-371]
62 | IFPPIDDPLPFKP [YDR284C 246-258]
204 | IPTRENTPSAFKP [YDL231C 441-453]
1030 | ISKWTIMPHPNRP [YOL008W 136-148]
89 | IEFKDVSFSYPTRP [YPL270W 493-506]
91.7 | ISGVYYSNWSPYKP [YDR371W 74-87]
125 | IIHTDDLPEGIRP [YLR090W 426-438]
370 | IKMASFLPVPEKP [YNL206C 123-135]
90.9 | IFYSLIYPYLIKP [YIL067C 132-144]
74.7 | IIPIAKTPLNARP [YJR001W 478-490]
2850 | IFLNRKKPALFRP [YNL230C 281-293]
0 | ILYKSNDVELPGKP [YMR094W 38-51]
84.6 | INAYSNIPPQQRP [YCR033W 972-984]
82.1 | IHYKKNIEISPLKP [YML053C 112-125]
21.1 | IGSFITINIVPWRP [YLR101C 109-122]
105 | INLANEQPVLEKP [YDR227W 195-207]
97.3 | ILIGLLKDILPQRP [YNR011C 357-370]
63.2 | IEKTKDILSIPPKP [YOR219C 489-502]
15.7 | ILAILQELSLPSRP [YGR002C 424-437]
